Values belong to the binder of their own block, whether it stands above or below them.
How the values were obtained:
[1] = target: T1, recombinant mouse Trop-2-his protein (Cat.: 50922-M08H, Beijing Yiqiao Shenzhou Science and Technology Co., … (mouse, UniProt Q8BGV3 25-270)); experiment: ELISA, coated mouse Trop-2-his, purified murine antibody
T1 construct: Bought protein; not shown: his tag
T1 sequence (looked up): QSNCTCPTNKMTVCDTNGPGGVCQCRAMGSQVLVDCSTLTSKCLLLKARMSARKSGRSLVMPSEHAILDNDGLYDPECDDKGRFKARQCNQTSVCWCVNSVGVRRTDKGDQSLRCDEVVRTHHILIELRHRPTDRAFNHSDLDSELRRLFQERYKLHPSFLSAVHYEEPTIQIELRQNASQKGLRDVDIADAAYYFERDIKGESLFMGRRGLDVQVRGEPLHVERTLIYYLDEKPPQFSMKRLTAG
Protocol: Washed with PBS 3 times, the plates were blocked with the added 5% BSA PBS at 37° C. for 60 min, and then washed 3 times with PBST. The 15 purified murine antibodies were diluted to 1 μg/ml with PBS. Controls as follows were set: (1) Positive Control (PC): Sacituzumab (WHO Drug Information (Vol. 31, No. 1, 2017), SEQ ID NO: 39 and SEQ ID NO: 40), a version having murine IgG constant region, […]; (2) Negative Control (NC): an antibody from an irrelevant hybridoma, 1 μg/ml; (3) blank control: PBS. After incubation at 37° C. for 60 min, the plates were washed 4 times with PBST. […] Afterwards, the plates were washed with PBST 4 times, and TMB substrate was added for color development at 37° C. for 10 min. Then 2M HCl was added to stop reaction; and absorbances at 450 nm and at 630 nm (as reference wavelength) were read, and A450 nm-630 nm values of the wells in the plates were recorded.

[2] = target: T2, recombinant human Trop-2-his protein (ACCESSION NO.: NP_002344.2, AA 1-274) (human, UniProt P09758 27-274); experiment: BLI, SN38-labeled antibody on AHC sensor, Trop-2-his 60 nM, 300 s binding
T2 construct: range 27-274; also called recombinant human Trop-2 protein; recombinant human Trop-2 extracellular domain; not shown: his tag
T2 sequence (looked up): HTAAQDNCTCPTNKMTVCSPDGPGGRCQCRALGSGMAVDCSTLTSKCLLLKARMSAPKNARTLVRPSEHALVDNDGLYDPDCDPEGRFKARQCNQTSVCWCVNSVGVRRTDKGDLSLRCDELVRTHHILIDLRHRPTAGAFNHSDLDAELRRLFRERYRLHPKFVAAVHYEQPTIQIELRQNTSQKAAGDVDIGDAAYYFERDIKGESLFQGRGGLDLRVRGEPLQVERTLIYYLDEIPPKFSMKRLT
Protocol: (§1) Affinities of the antibodies were determined by an assay including capturing Fc fragments of the antibodies with anti-human IgG Fc capture (AHC) biosensors using Octet QKe system instrument from Fortebio.
(§2) For the assay, SN38-labeled antibodies prepared as described above: h23-12-SN38, ch4-3-SN38, ch11-4-SN38, and positive control antibody Sacituzumab-SN38, as well as naked antibodies h23-12, ch4-3, ch11-4, and positive control antibody Sacituzumab were diluted to 4 μg/ml with PBS and allowed to flow through the surface of an AHC biosensor (Cat.: 18-0015, PALL) for 120 s. Recombinant human Trop-2-his protein (ACCESSION NO.: NP_002344.2, AA 1-274) was used as a mobile phase, and its concentration was 60 nM. The binding time was 300 s and the dissociation time was 300 s. When the assay was finished, data from which the response value of blank control had been deducted were fitted to a 1:1 Langmuir binding model using software, and then kinetic constants for antigen-antibody binding were calculated.

[3] = target: T3, human Trop-2 on the surface of cells (CHO/Trop-2 cells; BxPC-3 cells; NCI-N87 cells) (human, UniProt P09758 27-323); experiment: cell-based or functional assay
T3 sequence (looked up): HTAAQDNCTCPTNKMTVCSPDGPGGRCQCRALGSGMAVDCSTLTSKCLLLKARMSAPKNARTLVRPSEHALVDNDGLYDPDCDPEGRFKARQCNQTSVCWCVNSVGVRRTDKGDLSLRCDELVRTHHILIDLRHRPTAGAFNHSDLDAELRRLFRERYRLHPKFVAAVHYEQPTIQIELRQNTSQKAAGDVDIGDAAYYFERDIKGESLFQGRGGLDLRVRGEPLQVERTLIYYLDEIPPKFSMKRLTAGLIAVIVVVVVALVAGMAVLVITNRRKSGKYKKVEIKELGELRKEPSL

[4] = target: T3, human Trop-2 on the surface of cells …; experiment: cell-based or functional assay; remark: listed apart in the source
[5] = target: T3, human Trop-2 on the surface of cells …; experiment: cell-based or functional assay; remark: listed apart in the source
[6] = target: T2, recombinant human Trop-2-his protein …; experiment: BLI, antibody on AHC sensor, Trop-2-his 60 nM
Protocol: 5-6 days after cell transfection, culture supernatants were purified through ProA affinity chromatography column to obtain different humanized antibodies. Affinities of the obtained antibodies were determined by an assay including capturing Fc fragments of the antibodies with anti-human IgG Fc capture (AHC) biosensors using Octet QKe system instrument from Fortebio. For the assay, each of the humanized antibodies and control antibody Sacituzumab was diluted to 4 μg/ml in PBS, and was allowed to flow through the surface of an AHC biosensor (Cat.: 18-0015, PALL) for 120 s. Recombinant human Trop-2-his protein (ACCESSION NO.: NP_002344.2, AA 1-274) was used as a mobile phase, and its concentration was 60 nM. The binding time was 100 s and the dissociation time was 300 s. When the assay was finished, data from which the response values of blank control had been deducted were fitted to a 1:1 Langmuir binding model using software, and then kinetic constants for antigen-antibody binding were calculated.
Affinities of the antibodies obtained from the combinations of mutants of murine antibody 23-12, chimeric antibody ch4-3 and control antibody Sacituzumab to recombinant human Trop-2-his protein were determined by ForteBio (Table 8).

[7] = target: T3, human Trop-2 on the surface of cells …; experiment: FACS, CHO/Trop-2 cells
Protocol: Suspensions of CHO cells recombinantly expressing human Trop-2 (CHO/Trop-2 cells) were incubated with chimeric antibodies ch3-11, ch4-3, ch17-1, ch11-4, and ch23-12 (dilutions at concentrations of 30 μg/ml and 10 μg/ml, and serial dilutions of 9 concentrations obtained through 3-fold serially diluting a solution with an initial concentration of 5 μg/ml, 11 concentrations in total) for 30 min at 37° C. Controls as follows were set: (1) Positive Control (PC): control antibody Sacituzumab; (2) Negative Control (NC): IgG1 isotype control antibody NC-IgG1. The cells were washed 3 times with PBS, and 1:100 dilution of goat anti-human IgG-FITC (Cat.: F9512, Sigma) was added into the cell which then were incubated for 30 min. Then the cells were washed 3 times with PBS again, and the Mean Fluorescence Intensity (MFI) of the cells was measured by a flow cytometer (model B49007AD, SNAW31211, BECKMAN COULTER) to detect binding ability of the chimeric antibodies to human Trop-2 on the surface of CHO cells.

[8] = target: T2, recombinant human Trop-2-his protein …; experiment: BLI, naked antibody on AHC sensor, Trop-2-his 60 nM, 300 s binding
Protocol: as §1, §2

[9] = target: T2, recombinant human Trop-2-his protein …; experiment: ELISA, coated Trop-2-his 0.2 µg/ml
Protocol: Plates were coated with recombinant human Trop-2-his protein (ACCESSION NO.: NP_002344.2, AA 1-274) at a concentration of 0.2 μg/ml overnight at 4° C. and then blocked with 5% BSA for 60 min in a constant temperature incubator at 37° C. Chimeric antibodies ch3-11, ch4-3, ch17-1, ch11-4, and ch23-12 and control antibody Sacituzumab (serial dilutions of 8 concentrations in total obtained through 3-fold serially diluting a solution with an initial concentration of 2 μg/ml) were added into the plates which were then incubated in a constant temperature incubator at 37° C. for 60 min. The plates were washed with PBST 4 times, and 1:5000 dilution of HRP-anti-human Fc (Cat.: 109-035-098, Jackson ImmunoResearch) was added into the plates for reaction for 45 min. TMB (Cat.: ME142, GalaxyBio, Beijing) substrate was added for color development for 15 min, and then 2M HCl was added to stop reaction. Absorbances at 450 nm and at 630 nm (as reference wavelength) were read, and A450 nm-630 nm values of the wells in the plates were recorded.

[10] = target: T3, human Trop-2 on the surface of cells …; experiment: cell-based or functional assay; remark: listed apart in the source

binding result [1]: no binding (tested: 1 µg/ml)
B1: m23-12 (antibody, mouse IgG1, V domains shown)
VH: QVQLQQPGAELVKPGASVKLSCKADGYIFTSYWMHWVKQRPGQGLEWIGEITPSDNYTSYNQKFKGKATLTVDKSSSTAYMQLSSLTSEDSAVYYCTRGHGNYVSFDYWGQGTTLTVSS
VL: DIQMTQITSSLSASLGDRVTITCRASQDISNYLNWYQQKPDGTVKLLIYYTSRLHSGVPSRFSGSGSGTDYSLTISNLEQEDIATYFCQQGYTLPPYTFGGGTKLEIK
notes: also called murine antibody 23-12

Kd [2]: 0.0734 nM | Internalization percentage, 1 h, BXPC-3 cells, FACS [3]: 51.1% | IC50 (µg/ml), inhibitory activity of anti-Trop-2 ADCs on cell growth, BxPC-3 cells [4]: 2.88 µg/mL
B2: ch11-4-SN38 (antibody, V domains shown)
VH: QVQLQQPGAELVRPGASVNLSCKASGYTFTSYWINWVKQRPGQGLEWIGNIYPSNSYTNYNQKFKDTATLTVDKSSSTAYMQLSSPTSEDSAVYFCSSYRSDGFAYWGQGTLVTVSA
VL: DILLTQSPAILSVSPGEKVSFSCRASQNIGTSIHWYQQRTNGSPRLLIEFASESISGIPSRFSGSGSGTDFTLTINSVESEDIADYYCQQSNSWPFTFGGGTKLEIK
modifications: CL2A-SN-38 conjugated to the DTT-reduced antibody; 7.5 SN38 per antibody; sites not stated
notes: also called ch11-4 labeled with SN38

Kd [2]: 0.441 nM | Internalization percentage, 1 h, BXPC-3 cells, FACS [3]: 20.1% | Internalization percentage, 1 h, NCI-N87 cells, FACS [5]: 51.1% | IC50 (µg/ml), inhibitory activity of anti-Trop-2 ADCs on cell growth, BxPC-3 cells [4]: 1.41 µg/mL
B3: h23-12-SN38 (antibody, human IgG1, kappa, V domains shown)
VH: QVQLVQSGAEVKKPGASVKVSCKASGYTFTSYWMHWVRQAPGQGLEWMGEITPSDNYGSYNQKFKGRVTITRDTSTSTAYMELSSLRSEDTAVYYCARGHGNYVSFDYWGQGTLVTVSS
VL: DIQMTQSPSSLSASVGDRVTITCRASQDISNYLNWYQQKPGKAPKLLIYYTSRLESGVPSRFSGSGSGTDFTLTISSLQPEDFATYFCQQGYTLPPYTFGQGTKLEIKR
modifications: CL2A-SN-38 conjugated to the DTT-reduced antibody; 7.5 SN38 per antibody; sites not stated
notes: also called h23-12 labeled with SN38

Kd [2]: 0.431 nM | Internalization percentage, 1 h, BXPC-3 cells, FACS [3]: 32.7% | Internalization percentage, 1 h, NCI-N87 cells, FACS [5]: 47.5% | IC50 (µg/ml), inhibitory activity of anti-Trop-2 ADCs on cell growth, BxPC-3 cells [4]: 4.31 µg/mL
B4: Sacituzumab-SN38 (antibody, human IgG1, kappa, V domains shown)
VH: QVQLQQSGSELKKPGASVKVSCKASGYTFTNYGMNWVKQAPGQGLKWMGWINTYTGEPTYTDDFKGRFAFSLDTSVSTAYLQISSLKADDTAVYFCARGGFGSSYWYFDVWGQGSLVTVSS
VL: DIQLTQSPSSLSASVGDRVSITCKASQDVSIAVAWYQQKPGKAPKLLIYSASYRYTGVPDRFSGSGSGTDFTLTISSLQPEDFAVYYCQQHYITPLTFGAGTKVEIKR
modifications: CL2A-SN-38 conjugated to the DTT-reduced antibody; 7.5 SN38 per antibody; sites not stated
notes: also called Sacituzumab labeled with SN38

Kd [6]: 0.3 nM | Internalization percentage, 1 h, BXPC-3 cells, FACS [3]: 30.7% | EC50 [7]: 3.33 nM | Internalization percentage, 1 h, NCI-N87 cells, FACS [5]: 50.2% | Kd [8]: 0.323 nM | EC50 [9]: 0.32 nM | Internalization percentage (%), 1 h, BxPC-3 cells, FACS [10]: 17.1% | Internalization percentage (%), 3 h, BxPC-3 cells, FACS [10]: 23.1% | Internalization percentage (%), 5 h, BxPC-3 cells, FACS [10]: 28.1%
B5: chimeric antibody ch4-3 (antibody, human IgG1, V domains shown)
VH: QVQLQQSGPELVKPGASVKMSCKASGFTFTDYVIGWVKQRTGQGLEWIGEIYLGSGTIYYTEKFKGKATLTADTSSNTAYMQLSSLTSEDSAVYFCARGSIFPFDYWGQGTTLTVSS
VL: QIVLTQSPAIMSASPGEKVTMTCSASSSVSYMYWYQQKPGSSPRLLIYDTSTLASGVPVRFSGSGSGTSYSLTISRMEAEDAATYYCQQWSSYPYTFGGGTKLEIK

Kd [2]: 0.177 nM | Internalization percentage, 1 h, BXPC-3 cells, FACS [3]: 57.7% | Internalization percentage, 1 h, NCI-N87 cells, FACS [5]: 64.6% | IC50 (µg/ml), inhibitory activity of anti-Trop-2 ADCs on cell growth, BxPC-3 cells [4]: 3.3 µg/mL
B6: ch4-3-SN38 (antibody, V domains shown)
VH: B5 VH
VL: B5 VL
modifications: CL2A-SN-38 conjugated to the DTT-reduced antibody; 7.5 SN38 per antibody; sites not stated
notes: also called ch4-3 labeled with SN38
